# Measured values taken from patent publication US20040077017A1.
# Molecular target: Fc3(1) (human) (UniProt P01860)
# Test: Biacore 2000 SPR, Fc3(1) immobilized on CM5 chip, 25 C, HBS
substance,measurement,value
"unlabeled, wild-type Z-ABD (from UniProt P19909 254-299) (designed binder)",Kd,90 nM
